Experimental data published in publication PMC10810954, “Structural and functional insights into the lipid regulation of human anion exchanger 2” (Nature Communications, 2024).
Where a chain is given by its changes, count along the chain named. Names may count otherwise.

B1: Full-length canonical human AE2 (isoform 1), wild type (natural protein, UniProt P04920-1 1-1241, looked up)
chain: MSSAPRRPAKGADSFCTPEPESLGPGTPGFPEQEEDELHRTLGVERFEEILQEAGSRGGEEPGRSYGEEDFEYHRQSSHHIHHPLSTHLPPDARRRKTPQGPGRKPRRRPGASPTGETPTIEEGEEDEDEASEAEGARALTQPSPVSTPSSVQFFLQEDDSADRKAERTSPSSPAPLPHQEATPRASKGAQAGTQVEEAEAEAVAVASGTAGGDDGGASGRPLPKAQPGHRSYNLQERRRIGSMTGAEQALLPRVPTDEIEAQTLATADLDLMKSHRFEDVPGVRRHLVRKNAKGSTQSGREGREPGPTPRARPRAPHKPHEVFVELNELLLDKNQEPQWRETARWIKFEEDVEEETERWGKPHVASLSFRSLLELRRTLAHGAVLLDLDQQTLPGVAHQVVEQMVISDQIKAEDRANVLRALLLKHSHPSDEKDFSFPRNISAGSLGSLLGHHHGQGAESDPHVTEPLMGGVPETRLEVERERELPPPAPPAGITRSKSKHELKLLEKIPENAEATVVLVGCVEFLSRPTMAFVRLREAVELDAVLEVPVPVRFLFLLLGPSSANMDYHEIGRSISTLMSDKQFHEAAYLADEREDLLTAINAFLDCSVVLPPSEVQGEELLRSVAHFQRQMLKKREEQGRLLPTGAGLEPKSAQDKALLQMVEAAGAAEDDPLRRTGRPFGGLIRDVRRRYPHYLSDFRDALDPQCLAAVIFIYFAALSPAITFGGLLGEKTQDLIGVSELIMSTALQGVVFCLLGAQPLLVIGFSGPLLVFEEAFFSFCSSNHLEYLVGRVWIGFWLVFLALLMVALEGSFLVRFVSRFTQEIFAFLISLIFIYETFYKLVKIFQEHPLHGCSASNSSEVDGGENMTWAGARPTLGPGNRSLAGQSGQGKPRGQPNTALLSLVLMAGTFFIAFFLRKFKNSRFFPGRIRRVIGDFGVPIAILIMVLVDYSIEDTYTQKLSVPSGFSVTAPEKRGWVINPLGEKSPFPVWMMVASLLPAILVFILIFMETQITTLIISKKERMLQKGSGFHLDLLLIVAMGGICALFGLPWLAAATVRSVTHANALTVMSKAVAPGDKPKIQEVKEQRVTGLLVALLVGLSIVIGDLLRQIPLAVLFGIFLYMGVTSLNGIQFYERLHLLLMPPKHHPDVTYVKKVRTLRMHLFTALQLLCLALLWAVMSTAASLAFPFILILTVPLRMVVLTRIFTDREMKCLDANEAEPVFDEREGVDEYNEMPMPV
notes: Anion exchanger 2 (AE2, SLC4A2), human, isoform a, UniProtKB P04920-1, full length; Full-length protein was purified, but only the TMDs are resolved in the map; the NTD, parts of EL3, EL4, EL6 and the C-terminus are not modelled; also called Anion exchanger 2; hAE2; source: HEK293F (FreeStyle 293 F) cells, BacMam system, purified (LMNG/CHS extraction, Ni-NTA, TEV, Superose 6 in GDN); not shown: …
B2: Full-length human AE2 with R932A/K1147A/H1148A mutations (natural protein, UniProt P04920-1 1-1241, looked up)
chain: B1 chain with R932A, K1147A, H1148A
notes: No PIP2 in the map; NTD resolved; also called AE2_(IF/REST); mutant AE2; not shown: GFP, C-terminal, cleaved; His tag, C-terminal, cleaved

Biological target: the molecule itself
Experiment: cryo-EM structure; purified AE2 in 50 μM GDN, 150 mM NaCl, 20 mM HEPES pH 7.4; Titan Krios 300 kV; homodimer

Protein	stoichiometry N
B1	2
B2	2
